pKd: −log10 of the molar value.

One assay deals with HLA-A*02:02. Kind of assay: IEDB peptide-MHC binding, purified MHC/competitive/radioactivity; filed as Kd, often an IC50 or EC50 that approximates it; ≥ and ≤ were set here for values at or beyond the usual limits of such assays.
Another assay deals with HLA-A*02:03. The assay is described as above.
The target in the next assay is HLA-A*02:06. The description is as above.
In the next assay the target is HLA-A*30:01. The assay is described as above.
The target of the next assay is HLA-A*01:01. In words: IEDB peptide-MHC binding, purified MHC/direct/fluorescence; filed as Kd, often an IC50 or EC50 that approximates it; ≥ and ≤ were set here for values at or beyond the usual limits of such assays.
Another assay has as its target HLA-B*15:01. Described as above. As to conditions: source organism: Rickettsia prowazekii.
In another assay the target is HLA-A*26:01. Kind of assay: IEDB peptide-MHC binding, purified MHC/competitive/radioactivity; filed as Kd, often an IC50 or EC50 that approximates it; ≥ and ≤ were set here for values at or beyond the usual limits of such assays. Particulars: source organism: Dengue virus 2 16681-PDK53.
In the next assay the target is HLA-A*02:01. In words: IEDB peptide-MHC binding, purified MHC/direct/fluorescence; filed as Kd, often an IC50 or EC50 that approximates it; ≥ and ≤ were set here for values at or beyond the usual limits of such assays.
In a further assay the target is HLA-A*69:01. The assay is described as above. As to conditions: source organism: dengue virus type 1.
In a further assay the target is HLA-B*27:05. The description is as above. Particulars: source organism: Mycobacterium avium 104.
[1] abbreviates: source organism: Vaccinia virus WR.
Setting [2] is: source organism: Mammarenavirus tacaribeense.
The mark [3] stands for this setting: source organism: Dengue virus 2 Jamaica/1409/1983.
Setting [4] is: source organism: Mammarenavirus brazilense.

Take IAGIILLIL: the pKd (commonly the negative decadic logarithm of the Kd, by convention in mol/L) with HLA-A*02:02 (setting [1]) was 5.38; with HLA-A*02:03 (setting [1]), no more than 4.28; with HLA-A*02:06 (setting [1]), no more than 4.11.
PANINDKQIM: the values for the negative-log Kd (pKd) in the assay with HLA-A*02:02 (setting [1]), with HLA-A*02:03 (setting [1]) and with HLA-A*02:06 (setting [1]) were no more than 4.31, no more than 4.37 and 4.96, respectively.
In the same order, the values of IMRVMANNV are 6.40, 5.90 and 5.60.
Regarding CFKPALPTL, the pKd with HLA-A*30:01 (source organism: Vaccinia virus Copenhagen) was 7.14.
With MYKLNKPTK, in the assay with HLA-A*01:01 (source organism: Camelpox virus M-96), the pKd was no more than 4.70.
Take YTGGYDVSL: the pKd with HLA-A*02:02 (setting [1]) was 5.70; with HLA-A*02:03 (setting [1]) it was 5.22; with HLA-A*02:06 (setting [1]), no more than 4.69.
IQGTLAKAY had a pKd with HLA-B*15:01 of 6.67.
In the case of LIYDDNIDSI, the pKd in the assay with HLA-A*02:02 (setting [1]) is 6.92; in the assay with HLA-A*02:03 (setting [1]), 7.58; in the assay with HLA-A*02:06 (setting [1]) it was 6.67.
For the sequence SVRLLNYFK, the pKd in the assay with HLA-A*30:01 (setting [1]) was 9.62.
LTNKKYRCMA: the negative logarithm of the Kd (pKd) in the assay with HLA-A*02:02 (setting [1]) is no more than 4.46; in the assay with HLA-A*02:03 (setting [1]), 5.27; in the assay with HLA-A*02:06 (setting [1]), no more than 4.16.
In the assay with HLA-A*01:01 (source organism: Listeria monocytogenes), RFRKKKKVY had a pKd of no more than 4.70.
For VVECLTVPNI, the pKd was 5.07 in the assay with HLA-A*02:02 (setting [1]), 4.71 with HLA-A*02:03 (setting [1]) and 6.52 in the assay with HLA-A*02:06 (setting [1]).
As for CAVIPFDDIV, the pKd with HLA-A*02:02 (setting [1]) was 5.53; with HLA-A*02:03 (setting [1]), 5.13; with HLA-A*02:06 (setting [1]) it was 6.74.
Take KSFFWFNEV: the values for the pKd in the assay with HLA-A*02:02 (setting [2]), in the assay with HLA-A*02:03 (setting [2]) and in the assay with HLA-A*02:06 (setting [2]) were 7.21, 6.58 and 8.50, respectively.
Take RYRFAFLYL: in the assay with HLA-A*30:01 (setting [1]), the pKd was 9.77.
On the same count and under the same terms, for KLKFRFIIR the value was 6.92.
Take LVDKEDTDIV: the pKd in the assay with HLA-A*02:02 (setting [1]) is 5.43; in the assay with HLA-A*02:03 (setting [1]), 5.77; in the assay with HLA-A*02:06 (setting [1]), no more than 4.57.
The corresponding values for KTDGAVTSPL are 7.21, 6.40 and 6.46.
With KLKPRWLDA, in the assay with HLA-A*30:01 (setting [3]), the pKd was 7.68.
As to VQLSNNKYV, the negative-log Kd (pKd) with HLA-A*02:02 (setting [1]) was 5.13; in the assay with HLA-A*02:03 (setting [1]), 6.27; in the assay with HLA-A*02:06 (setting [1]), 6.67.
For SVIEKMEAL, the pKd in the assay with HLA-A*26:01 is 7.29.
In the case of CLTVPNITI, the pKd with HLA-A*02:02 (setting [1]) was 7.02; with HLA-A*02:03 (setting [1]) it was 7.12; with HLA-A*02:06 (setting [1]) it was 5.78.
In the same order, the values of NLTQLFKYV are 6.49, 6.62 and 6.18.
As to SVQLSNNKYV, the pKd with HLA-A*02:02 (setting [1]) is 5.91; with HLA-A*02:03 (setting [1]) it was 6.09; with HLA-A*02:06 (setting [1]), 5.05.
In the same order, the values of VAVNKSNKPL are 5.56, 5.29 and 4.75.
For the sequence LWRTLGRNK, the pKd with HLA-A*30:01 (source organism: Dengue virus 3 Martinique/1243/1999) is 6.32.
On to YNYSLSAAV, for which the values for the pKd with HLA-A*02:02 (setting [4]), with HLA-A*02:03 (setting [4]) and in the assay with HLA-A*02:06 (setting [4]) were 7.10, 7.17 and 7.05, respectively.
As to NAICSAVPSH, in the assay with HLA-A*30:01 (setting [3]), the pKd was 5.19.
For IVCSKTVKNV, the values for the pKd with HLA-A*02:02 (setting [1]), with HLA-A*02:03 (setting [1]) and in the assay with HLA-A*02:06 (setting [1]) were 4.97, 6.30 and 5.56, respectively.
In the assay with HLA-A*02:01 (source organism: Haemophilus influenzae), ALLGERPII showed a pKd of 5.11.
As to AEALKGMPIR, the pKd in the assay with HLA-A*30:01 (source organism: Dengue virus 1 Brazil/97-11/1997) is 5.90.
With PLNEGIMAV, the pKd is no more than 5.30 in the assay with HLA-A*69:01 and 6.93 with HLA-A*02:03 (source organism: Dengue virus 1 Singapore/S275/1990).
RRLVKVLNN: in the assay with HLA-B*27:05, the pKd is 5.36.
RYRQRLISL: the pKd with HLA-A*30:01 (setting [1]) was 8.29.
Turning to VLAGIFAGV, the pKd in the assay with HLA-A*02:01 (source organism: Mycobacterium tuberculosis) was no less than 9.00.
With TIDNIVTSLA, the pKd in the assay with HLA-A*02:02 (setting [1]) was no more than 4.15; in the assay with HLA-A*02:03 (setting [1]), no more than 4.15; in the assay with HLA-A*02:06 (setting [1]) it was no more than 4.16.

The record behind these values is the Immune Epitope Database (IEDB).
